Seven molecules from US20250296960A1, “PEPTIDE COMPOSITIONS AND METHODS OF USE THEREOF” (priority 2022, published 2025) can be followed below.

Numbered stars: 1 amine (or outer) side, 2 acyl side, 3 side chain; on linkers, the order of the positions; unused ones are H or OH. Square brackets hold non-standard residues; d marks the D form. Side chains are listed from the residue outwards. Ends that are not written are not given here. * marks the point of attachment. C18 = C18 fatty acid (C16-C22 fatty acids conjugated via γGlu/8-amino-3,6-dioxaoctanoic acid spacers); methoxinine = methoxinine (m*), COCC[C@H](N[*:1])C(=O)[*:2]; Biotin = O=C1N[C@H]2[C@H](CS[C@H]2CCCCC(=O)*)N1; γGlu = O=C(O)[C@H](CCC(=O)[*:2])N[*:1]; AEEA = NCCOCCOCC(=O)O; Aib = CC(C)(N)C(=O)O

First the molecules themselves.
T1: human glucose-dependent insulinotropic polypeptide receptor (GIPR), expressed on CHO-K1 cells (human, UniProt P48546 22-466)
T1 sequence (looked up): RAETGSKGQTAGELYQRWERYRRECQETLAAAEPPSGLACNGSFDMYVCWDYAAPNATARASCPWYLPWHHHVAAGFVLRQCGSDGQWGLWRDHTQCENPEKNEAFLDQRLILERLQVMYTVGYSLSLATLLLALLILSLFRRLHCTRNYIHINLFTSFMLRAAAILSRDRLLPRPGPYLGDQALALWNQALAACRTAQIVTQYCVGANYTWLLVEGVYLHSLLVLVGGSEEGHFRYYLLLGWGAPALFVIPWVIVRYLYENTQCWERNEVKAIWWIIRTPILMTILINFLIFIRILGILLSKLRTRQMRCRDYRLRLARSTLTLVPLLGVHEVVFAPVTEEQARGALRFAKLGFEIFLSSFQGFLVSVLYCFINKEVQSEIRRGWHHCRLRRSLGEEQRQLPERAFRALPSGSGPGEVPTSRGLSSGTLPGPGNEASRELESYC

B1: SEQ ID NO. 88 (peptide)
peptide: Y[Aib]QGTFTSDYSK([AEEA-AEEA-γGlu-C18])LLDYMMQKDFVQWLLEGGPSSGAPPPS-NH2
modifications: not fully specified (residue 20); printed as YAibQGT FTSDY SK*LLD YMMQB* DFVQW LLEGG PSSGA PPPS
B2: SEQ ID NO. 86 (peptide)
peptide: Y[Aib]QGTFTSDYSK([AEEA-AEEA-γGlu-C18])LLDKMMQRDFVQWLLEGGPSSGAPPPS-NH2
modifications: not fully specified (residue 16); printed as YAibQGT FTSDY SK*LLD B*MMQR DFVQW LLEGG PSSGA PPPS

Chain of human glucagon receptor (GCGR), expressed on CHO-K1 cells (P47871 26-477): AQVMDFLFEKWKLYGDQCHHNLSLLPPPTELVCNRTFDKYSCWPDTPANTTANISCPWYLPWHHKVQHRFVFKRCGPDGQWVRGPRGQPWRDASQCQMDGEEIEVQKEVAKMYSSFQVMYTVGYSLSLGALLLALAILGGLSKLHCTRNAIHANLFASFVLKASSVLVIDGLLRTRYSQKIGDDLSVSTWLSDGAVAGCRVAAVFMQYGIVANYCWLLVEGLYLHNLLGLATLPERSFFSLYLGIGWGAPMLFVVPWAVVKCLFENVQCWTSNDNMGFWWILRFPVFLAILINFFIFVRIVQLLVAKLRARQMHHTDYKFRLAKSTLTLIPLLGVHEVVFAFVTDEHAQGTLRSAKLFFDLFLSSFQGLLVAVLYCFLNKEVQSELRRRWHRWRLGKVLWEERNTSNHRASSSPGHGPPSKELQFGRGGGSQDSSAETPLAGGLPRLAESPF

For one test, the target named is human GLP-1 receptor (GLP-1R), expressed on CHO-K1 cells (human, UniProt P43220 24-463). In words: cell-based or functional assay.
As for Y[Aib]QGTFTSDYSK([AEEA-AEEA-γGlu-C18])LLDQQAQRDFVQWLLEGGPSSGAPPPS-NH2 [SEQ ID NO. 95], the “Ratio vs. GLP-1R” value turned out to be 100 and the “Relative % to native ligand” value stood at 1630%.
With Y[Aib]QGTFTSDYSK([AEEA-AEEA-γGlu-C18])LLDYMMQ[Aib]DFVQYLLEGGPSSGAPPPSK-NH2 (not fully specified (residue 40)) [SEQ ID NO. 92], the “Ratio vs. GLP-1R” value turned out to be 100 and the “Relative % to native ligand” value was found to be 8%.
With Y[Aib]QGTFTSDYSK([AEEA-AEEA-γGlu-C18])LLDYMMQRDFVQWLLEGGPSSGAPPPSK(Biotin)-NH2 [SEQ ID NO. 90], the “Ratio vs. GLP-1R” value was found to be 100 and the “Relative % to native ligand” value is 50%.
As to Y[Aib]QGTFTSDYSK([AEEA-AEEA-γGlu-C18])LLDYMMQ[Aib]DFVQYLLEGGPSSGAPPPS-NH2 [SEQ ID NO. 85], the “Ratio vs. GLP-1R” value was determined as 100 and the “Relative % to native ligand” value is 12%.
For B1, in that order: 100 and 16%.
For B2, in that order: 100 and 90%.
Y[Aib]QGTFTSDYSK([AEEA-AEEA-γGlu-C18])LLDY[methoxinine][methoxinine]QRDFVQWLLEGGPSSGAPPPS-NH2 [SEQ ID NO. 96]: the “Ratio vs. GLP-1R” value was determined as 100 and the “Relative % to native ligand” value was 181%.

A further test has as its target human glucagon receptor (GCGR), expressed on CHO-K1 cells (human, UniProt P47871 26-477). In words: cell-based or functional assay.
With Y[Aib]QGTFTSDYSK([AEEA-AEEA-γGlu-C18])LLDQQAQRDFVQWLLEGGPSSGAPPPS-NH2 [SEQ ID NO. 95], the “Ratio vs. GLP-1R” value stood at 1 and the “Relative % to native ligand” value was found to be 14%.
As to Y[Aib]QGTFTSDYSK([AEEA-AEEA-γGlu-C18])LLDYMMQ[Aib]DFVQYLLEGGPSSGAPPPSK-NH2 (not fully specified (residue 40)) [SEQ ID NO. 92], the “Ratio vs. GLP-1R” value is 243 and the “Relative % to native ligand” value amounted to 19%.
With Y[Aib]QGTFTSDYSK([AEEA-AEEA-γGlu-C18])LLDYMMQRDFVQWLLEGGPSSGAPPPSK(Biotin)-NH2 [SEQ ID NO. 90], the “Ratio vs. GLP-1R” value was determined as 39 and the “Relative % to native ligand” value came to 19%.
For Y[Aib]QGTFTSDYSK([AEEA-AEEA-γGlu-C18])LLDYMMQ[Aib]DFVQYLLEGGPSSGAPPPS-NH2 [SEQ ID NO. 85], in that order: 305 and 38%.
For B1, in that order: 120 and 20%.
Consider B2, for which the “Ratio vs. GLP-1R” value is 157 and the “Relative % to native ligand” value was determined as 142%.
In the same order, the values of Y[Aib]QGTFTSDYSK([AEEA-AEEA-γGlu-C18])LLDY[methoxinine][methoxinine]QRDFVQWLLEGGPSSGAPPPS-NH2 [SEQ ID NO. 96] are 10 and 17%.

Another test concerns the target T1, human glucose-dependent insulinotropic …. In words: cell-based or functional assay.
Turning to Y[Aib]QGTFTSDYSK([AEEA-AEEA-γGlu-C18])LLDQQAQRDFVQWLLEGGPSSGAPPPS-NH2 [SEQ ID NO. 95], the “Ratio vs. GLP-1R” value stood at 19 and the “Relative % to native ligand” value came out at 316%.
For Y[Aib]QGTFTSDYSK([AEEA-AEEA-γGlu-C18])LLDYMMQ[Aib]DFVQYLLEGGPSSGAPPPSK-NH2 (not fully specified (residue 40)) [SEQ ID NO. 92], in that order: 1530 and 120%.
In the same order, the values of Y[Aib]QGTFTSDYSK([AEEA-AEEA-γGlu-C18])LLDYMMQRDFVQWLLEGGPSSGAPPPSK(Biotin)-NH2 [SEQ ID NO. 90] are 311 and 154%.
For Y[Aib]QGTFTSDYSK([AEEA-AEEA-γGlu-C18])LLDYMMQ[Aib]DFVQYLLEGGPSSGAPPPS-NH2 [SEQ ID NO. 85], in that order: 1150 and 143%.
Consider B1, for which the “Ratio vs. GLP-1R” value is 432 and the “Relative % to native ligand” value was 71%.
Take B2: the “Ratio vs. GLP-1R” value was determined as 639 and the “Relative % to native ligand” value was determined as 575%.
For the molecule Y[Aib]QGTFTSDYSK([AEEA-AEEA-γGlu-C18])LLDY[methoxinine][methoxinine]QRDFVQWLLEGGPSSGAPPPS-NH2 [SEQ ID NO. 96], the “Ratio vs. GLP-1R” value came out at 56 and the “Relative % to native ligand” value amounted to 102%.
